# Test results: PMC5714350
# Key:
# Details in all cases: other: dynamic light scattering
# [1] = dynamic light scattering; FXN^81-210 with ferric iron (FeCl3 in HEPES pH 7.5), Fe3+:protein 6:1, 8:1, 10:1
# [2] = dynamic light scattering; FXN^81-210 with Fe2+ 6:1 for 15 min, then chelator (deferiprone, DFO or BIPY) at 3 times the amount of iron; room temperature
# [3] = dynamic light scattering; FXN^81-210 2.5 mg/ml (0.17 mM) with ammonium iron (II) sulfate, aerobic, Fe2+:protein 2:1, 4:1, 5:1, 6:1, 10:1; room temperature; profiles every 5 min for 2 h; volume distribution
substance,measurement,setting,value
Human frataxin isoform 81–210 (FXN^81-210),"% of particles in the monomer range (hydrodynamic radius 1.6–3 nm), with iron (Fe3+ 6:1)",[1],97%
same,"% of particles with hydrodynamic radius 6–8.5 nm (oligomers), with iron (Fe3+ 8:1)",[1],84.4%
same,"% of particles with hydrodynamic radius 8.5–14 nm (oligomers), with iron (Fe3+ 6:1)",[1],3%
same,"% of particles with hydrodynamic radius 8.5–14 nm (oligomers), with iron (Fe3+ 10:1)",[1],86.8%
same,"% of particles with hydrodynamic radius 15–25 nm (oligomers), with iron (Fe3+ 8:1)",[1],15.6%
same,"% of particles in the monomer range (hydrodynamic radius 1.6–2.1 nm), with iron (Fe2+ 6:1) and BIPY",[2],92%
same,"% of particles in the monomer range (hydrodynamic radius 1.6–2.1 nm), with iron (Fe2+ 6:1) and deferiprone",[2],97%
same,"% of particles with hydrodynamic radius 6–8.5 nm (oligomers), with iron (Fe2+ 6:1) and BIPY",[2],8%
same,"% of particles with hydrodynamic radius 6–8.5 nm (oligomers), with iron (Fe2+ 6:1) and DFO",[2],95%
same,"% of particles with hydrodynamic radius 8.5–14 nm (oligomers), with iron (Fe2+ 6:1) and deferiprone",[2],3%
same,"% of particles with hydrodynamic radius 15–25 nm (oligomers), with iron (Fe2+ 6:1) and DFO",[2],5%
same,"% of particles in the monomer range (hydrodynamic radius 1.6–2.1 nm), with iron (Fe2+ 6:1)",[3],92%
same,"% of particles with hydrodynamic radius 6–8.5 nm (oligomers), with iron (Fe2+ 6:1)",[3],8%
same,"% of particles with mean hydrodynamic radius of about 5 nm (oligomers), with iron (Fe2+ 10:1, 60 min)",[3],The major fraction of the oligomers (88%)
